# Data reported in patent US20110033448.
# T1: hCAP18 (propeptide of LL-37), P49913
# T1 chain: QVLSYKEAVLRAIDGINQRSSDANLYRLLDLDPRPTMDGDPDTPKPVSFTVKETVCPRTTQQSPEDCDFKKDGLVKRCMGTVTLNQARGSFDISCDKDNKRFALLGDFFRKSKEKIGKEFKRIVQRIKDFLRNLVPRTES
# B1: Proteinase 3 (protein)
# chain: IVGGHEAQPHSRPYMASLQMRGNPGSHFCGGTLIHPSFVLTAAHCLRDIPQRLVNVVLGAHNVRTQEPTQQHFSVAQVFLNNYDAENKLNDVLLIQLSSPANLSASVATVQLPQQDQPVPHGTQCLAMGWGRVGAHDPPAQVLQELNVTVVTFFCRPHNICTFVPRRKAGICFGDSGGPLICDGIIQGIDSFVIWGCATRLFPDFFTRVALYVDWIRSTLR
# Biological target: T1, hCAP18 (propeptide of LL-37), P49913
protein,measurement,value
B1,Western blot of cleavage of the 4 kD LL-37 peptide from hCAP18 in supernatants of activated neutrophils,the cleavage of the 4 kD LL-37 peptide can be blocked by pretreatment of neutrophils with the proteinase 3 inhibitors
